# The supplement of paper PMC9112550, “Optimization of the antimicrobial peptide Bac7 by deep mutational scanning” (BMC Biology, 2022)
# System: Escherichia coli TOP10
# Experiment: shrunken log2 fold change of peptide-encoding DNA abundance (4.5 h post-induction vs induction); higher = less antimicrobial activity (less host growth inhibition)
# Details: time post-induction: 4.5 h; library: site-saturation at positions 5, 18, 19, 20
# 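Note: peptides expressed intracellularly from a pBAD plasmid library in pooled LB shake-flask culture, induced with 0.3% L-arabinose, DNA abundance read by NGS, three biological replicates, DESeq2 with apeglm shrinkage.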
row,Sequence,shrunken log2 fold change
1,RRIRSRPPRLPRPRPRPQGHPRP,0.00442
2,RRIRTRPPRLPRPRPRPADEPRP,-0.0108
3,RRIRNRPPRLPRPRPRPMWSPRP,-0.095
4,RRIRYRPPRLPRPRPRPGWPPRP,0.0827
5,RRIRWRPPRLPRPRPRPRLLPRP,0.178
6,RRIRVRPPRLPRPRPRPMRKPRP,4.33
7,RRIRGRPPRLPRPRPRPTQEPRP,1.38
8,RRIRPRPPRLPRPRPRPRIRPRP,0.0752
9,RRIRDRPPRLPRPRPRPDSCPRP,0.0444
10,RRIRKRPPRLPRPRPRPQPAPRP,0.783
11,RRIRLRPPRLPRPRPRPNDFPRP,-0.0142
12,RRIRRRPPRLPRPRPRPVSKPRP,0.24
13,RRIRVRPPRLPRPRPRPVFAPRP,0.217
14,RRIRHRPPRLPRPRPRPWAMPRP,-0.00884
15,RRIRWRPPRLPRPRPRPPSKPRP,0.104
16,RRIRQRPPRLPRPRPRPNIHPRP,-0.619
17,RRIRIRPPRLPRPRPRPPPEPRP,0.32
18,RRIRMRPPRLPRPRPRPEPLPRP,0.277
19,RRIRERPPRLPRPRPRPNEMPRP,0.0665
20,RRIRKRPPRLPRPRPRPQLSPRP,-0.272
21,RRIRRRPPRLPRPRPRPHVEPRP,-0.162
22,RRIRIRPPRLPRPRPRPLMDPRP,-0.396
23,RRIRLRPPRLPRPRPRPSTYPRP,-0.205
24,RRIRGRPPRLPRPRPRPPQNPRP,1.01
25,RRIRYRPPRLPRPRPRPKTIPRP,-0.421

row,Sequence,shrunken log2 fold change
1,RRIRHRPPRLPRPRPRPYEEPRP,-0.431
2,RRIRDRPPRLPRPRPRPNPWPRP,0.111
3,RRIRPRPPRLPRPRPRPWEAPRP,-0.224
4,RRIRIRPPRLPRPRPRPYEVPRP,-0.248
5,RRIRMRPPRLPRPRPRPHSTPRP,0.126
6,RRIRGRPPRLPRPRPRPHETPRP,-0.022
7,RRIRRRPPRLPRPRPRPCMSPRP,-0.00622
8,RRIRWRPPRLPRPRPRPYLFPRP,-0.31
9,RRIRMRPPRLPRPRPRPTVQPRP,-0.0862
10,RRIRSRPPRLPRPRPRPMIYPRP,-0.257
11,RRIRARPPRLPRPRPRPECAPRP,1.5
12,RRIRFRPPRLPRPRPRPSTKPRP,0.0858
13,RRIRCRPPRLPRPRPRPVVVPRP,-0.203
14,RRIRRRPPRLPRPRPRPANTPRP,0.0917
15,RRIRPRPPRLPRPRPRPAQIPRP,0.175
16,RRIRCRPPRLPRPRPRPENCPRP,0.0153
17,RRIRMRPPRLPRPRPRPWCSPRP,-0.075
18,RRIRSRPPRLPRPRPRPVCHPRP,-0.388
19,RRIRIRPPRLPRPRPRPIMGPRP,-0.08
20,RRIRNRPPRLPRPRPRPHWTPRP,0.0333
21,RRIRERPPRLPRPRPRPMRRPRP,-0.0292
22,RRIRTRPPRLPRPRPRPSQTPRP,-0.169
23,RRIRCRPPRLPRPRPRPWKYPRP,-0.0802
24,RRIRMRPPRLPRPRPRPSLQPRP,0.385
25,RRIRHRPPRLPRPRPRPFYDPRP,-0.837

row,Sequence,shrunken log2 fold change
1,RRIRGRPPRLPRPRPRPHTYPRP,-0.0875
2,RRIRNRPPRLPRPRPRPNYQPRP,-0.599
3,RRIRTRPPRLPRPRPRPHSAPRP,0.205
4,RRIRQRPPRLPRPRPRPEPIPRP,0.047
5,RRIRIRPPRLPRPRPRPEHPPRP,-0.182
6,RRIRERPPRLPRPRPRPMWEPRP,0.169
7,RRIRQRPPRLPRPRPRPVVCPRP,3.57
8,RRIRDRPPRLPRPRPRPNQKPRP,0.18
9,RRIRFRPPRLPRPRPRPYSWPRP,-0.159
10,RRIRGRPPRLPRPRPRPQPLPRP,0.45
11,RRIRYRPPRLPRPRPRPRGIPRP,-0.0542
12,RRIRTRPPRLPRPRPRPFLPPRP,-0.279
13,RRIRYRPPRLPRPRPRPWYAPRP,-1.43
14,RRIRPRPPRLPRPRPRPRHYPRP,0.101
15,RRIRSRPPRLPRPRPRPNFYPRP,-0.252
16,RRIRDRPPRLPRPRPRPQATPRP,0.403
17,RRIRLRPPRLPRPRPRPTPQPRP,0.594
18,RRIRGRPPRLPRPRPRPCPFPRP,-0.218
19,RRIRDRPPRLPRPRPRPDGYPRP,-0.0204
20,RRIRIRPPRLPRPRPRPCECPRP,0.0112
21,RRIRMRPPRLPRPRPRPVCVPRP,0.241
22,RRIRNRPPRLPRPRPRPRHEPRP,-0.0217
23,RRIRHRPPRLPRPRPRPSGDPRP,-0.107
24,RRIRVRPPRLPRPRPRPYCIPRP,-0.27
25,RRIRMRPPRLPRPRPRPWYCPRP,-0.336
